Reference: patent US20070101449A1
Several values for one entry are separate records, joined by “and”; a condition that tells them apart may be missing. Equal values may be shown once.

What was measured:
[1] = molecular target: APP695-derived polypeptide carrying the Swedish mutant NLDA at the β secretase cleavage site (UniProt P05067); experiment: cell-based or functional assay
[2] = molecular target: APP695-derived polypeptide having the modified sequence NFEV at the β secretase cleavage site (UniProt P05067); experiment: cell-based or functional assay

- levels of Aβ (IP/Western blot of conditioned media of transfected HEK293T cells) (fold over wild-type KMDA) [1]: 15 and 20
- levels of Aβ (IP/Western blot of conditioned media of transfected HEK293T cells) (fold over wild-type KMDA) [2]: 15 and 20
Substance: human β secretase (from UniProt P56817 46-501) (enzyme)
